Measurements as given in patent US20210347891A1.
Values belong to the substance of their own block, whether it stands above or below them.

How the values were obtained:
[1] = target: dimeric human FcRn-β2m-GST (human) (UniProt P55899); assay: FACS of E. coli spheroplasts displaying the IgG, 50 nM dFcRn-GST-APC at pH 7.4
[2] = target: single chain FcRn-β2m-his (human scFcRn, Acro Biosystems Cat. No. FCM-H5286) (human) (UniProt P55899); assay: FACS of E. coli spheroplasts displaying the IgG, 10 nM scFcRn-FITC at pH 5.8
[3] = target: monomeric FcγRI-His (human) (human) (UniProt P12314); assay: SPR, antibody on CM5 chip, receptor injected, pH 7.4 HBS-EP
[4] = target: dimeric FcγRIIIa-F158-GST (human) (human) (UniProt P08637); assay: as above
[5] = target: dimeric FcγRIIa-H131-GST (human) (human) (UniProt P12318); assay: as above
[6] = target: dimeric FcγRIIa-R131-GST (human) (human) (UniProt P12318); assay: as above
[7] = target: dimeric FcγRIIb-GST (human) (human) (UniProt P31994); assay: as above
[8] = target: single chain FcRn-β2m-his (human scFcRn, Acro Biosystems Cat. No. FCM-H5286) (human) (UniProt P55899); assay: SPR, antibody on CM5 chip, scFcRn 400-25 nM, pH 5.8 PBS, 1:1 Langmuir
C1q = C1q (UniProt P02745); assay: SPR, antibody on CM5 chip, C1q injected, pH 7.4 HBS-EP
[9] = target: dimeric FcγRIIa-R131-GST (human) (human) (UniProt P12318); assay: ELISA: antibody coated, serially diluted GST-FcγRIIaR131 (the concentration is that of the receptor), anti-GST HRP
[10] = target: single chain FcRn-β2m-his (human scFcRn, Acro Biosystems Cat. No. FCM-H5286) (human) (UniProt P55899); assay: SPR, antibody on CM5 chip, FcRn/β2m injected, pH 5.8 (same values as Table 5)
[11] = target: dimeric FcγRIIb-GST (human) (human) (UniProt P31994); assay: ELISA: antibody coated, serially diluted GST-FcγRIIb (the concentration is that of the receptor), anti-GST HRP
[12] = target: single chain FcRn-β2m-his (human scFcRn, Acro Biosystems Cat. No. FCM-H5286) (human) (UniProt P55899); assay: SPR, antibody on CM5 chip, scFcRn, pH 5.8
[13] = target: single chain FcRn-β2m-his (human scFcRn, Acro Biosystems Cat. No. FCM-H5286) (human) (UniProt P55899); assay: SPR, antibody on CM5 chip, scFcRn 400-25 nM, pH 5.8 PBS
[14] = target: dimeric human FcRn-β2m-GST (human) (UniProt P55899); assay: ELISA at pH 7.4: antibody coated, serially diluted dFcRn (the concentration is that of dFcRn), anti-GST HRP
[15] = target: single chain FcRn-β2m-his (human scFcRn, Acro Biosystems Cat. No. FCM-H5286) (human) (UniProt P55899); assay: SPR at pH 7.4 PBS, scFcRn on CM5 chip at high density (4000 RU), antibody 400-25 nM injected
[16] = target: single chain FcRn-β2m-his (human scFcRn, Acro Biosystems Cat. No. FCM-H5286) (human) (UniProt P55899); assay: SPR at pH 7.4 PBS, scFcRn on CM5 chip at medium density (2000 RU), antibody 400-25 nM injected

Chain of dimeric FcγRIIa-R131-GST (human) (human) (P12318 34-218 H167R limits assumed): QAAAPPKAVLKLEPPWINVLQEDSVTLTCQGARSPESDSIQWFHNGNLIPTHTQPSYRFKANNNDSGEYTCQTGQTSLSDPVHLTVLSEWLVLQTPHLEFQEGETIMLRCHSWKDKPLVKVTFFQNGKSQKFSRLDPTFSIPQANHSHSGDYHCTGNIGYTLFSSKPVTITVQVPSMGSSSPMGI
Chain of C1q (P02745 23-245 limits assumed, chain 1 of 3): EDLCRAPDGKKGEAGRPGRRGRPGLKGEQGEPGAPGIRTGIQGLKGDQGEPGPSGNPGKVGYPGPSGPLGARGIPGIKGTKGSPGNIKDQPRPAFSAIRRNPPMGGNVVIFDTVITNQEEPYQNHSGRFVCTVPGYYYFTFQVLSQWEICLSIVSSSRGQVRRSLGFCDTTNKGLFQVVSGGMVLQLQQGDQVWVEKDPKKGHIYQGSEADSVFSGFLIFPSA
Chain of C1q (P02746 28-253 limits assumed, chain 2 of 3, further chain): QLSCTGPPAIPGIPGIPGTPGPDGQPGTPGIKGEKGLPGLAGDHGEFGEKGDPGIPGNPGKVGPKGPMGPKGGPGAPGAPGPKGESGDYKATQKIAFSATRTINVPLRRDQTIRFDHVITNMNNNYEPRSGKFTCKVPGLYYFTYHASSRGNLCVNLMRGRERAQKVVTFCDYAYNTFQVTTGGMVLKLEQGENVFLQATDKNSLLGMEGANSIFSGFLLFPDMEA
Chain of C1q (P02747 29-245 limits assumed, chain 3 of 3, further chain): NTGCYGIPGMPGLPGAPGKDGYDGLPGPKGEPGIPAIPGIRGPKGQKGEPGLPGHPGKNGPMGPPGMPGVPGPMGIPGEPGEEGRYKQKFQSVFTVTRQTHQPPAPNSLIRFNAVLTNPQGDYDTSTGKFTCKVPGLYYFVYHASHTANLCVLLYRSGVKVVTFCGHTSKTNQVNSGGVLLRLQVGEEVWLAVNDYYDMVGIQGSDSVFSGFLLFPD
Chain of monomeric FcγRI-His (human) (human) (P12314 16-288 limits assumed): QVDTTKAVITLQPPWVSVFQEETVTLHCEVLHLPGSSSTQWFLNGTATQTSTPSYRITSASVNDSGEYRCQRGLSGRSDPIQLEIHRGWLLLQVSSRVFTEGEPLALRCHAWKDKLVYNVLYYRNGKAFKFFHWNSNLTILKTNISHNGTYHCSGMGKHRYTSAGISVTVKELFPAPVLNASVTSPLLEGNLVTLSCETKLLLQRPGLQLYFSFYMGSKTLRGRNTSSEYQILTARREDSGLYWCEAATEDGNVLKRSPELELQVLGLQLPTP
Chain of dimeric FcγRIIa-H131-GST (human) (human) (P12318 34-218 limits assumed): as the sequence (P12318 34-218 H167R limits assumed) above, with R134H counted along it
Chain of dimeric FcγRIIb-GST (human) (human) (P31994 43-217 limits assumed): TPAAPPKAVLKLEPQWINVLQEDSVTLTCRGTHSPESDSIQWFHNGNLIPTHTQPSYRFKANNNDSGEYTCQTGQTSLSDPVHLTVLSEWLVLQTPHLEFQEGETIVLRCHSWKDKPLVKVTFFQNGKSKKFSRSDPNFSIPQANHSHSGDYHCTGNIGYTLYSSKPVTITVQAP
Chain of dimeric human FcRn-β2m-GST (human) (P55899 other isoform, or with tags, fused parts or gaps limits assumed): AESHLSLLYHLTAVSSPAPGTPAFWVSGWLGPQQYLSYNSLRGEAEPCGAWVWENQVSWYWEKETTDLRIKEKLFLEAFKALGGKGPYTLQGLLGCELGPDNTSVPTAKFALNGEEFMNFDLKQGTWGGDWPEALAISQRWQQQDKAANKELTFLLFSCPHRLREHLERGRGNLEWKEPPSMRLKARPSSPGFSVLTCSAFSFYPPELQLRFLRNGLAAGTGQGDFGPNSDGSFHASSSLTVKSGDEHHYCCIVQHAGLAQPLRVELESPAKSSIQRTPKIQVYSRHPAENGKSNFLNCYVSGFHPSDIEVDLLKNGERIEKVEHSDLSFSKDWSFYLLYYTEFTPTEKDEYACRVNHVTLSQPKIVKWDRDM
Chain of single chain FcRn-β2m-his (human scFcRn, Acro Biosystems Cat. No. FCM-H5286) (human) (P55899 other isoform, or with tags, fused parts or gaps): as the sequence (P55899 other isoform, or with tags, fused parts or gaps limits assumed) above
Chain of dimeric FcγRIIIa-F158-GST (human) (human) (P08637 17-208 limits assumed): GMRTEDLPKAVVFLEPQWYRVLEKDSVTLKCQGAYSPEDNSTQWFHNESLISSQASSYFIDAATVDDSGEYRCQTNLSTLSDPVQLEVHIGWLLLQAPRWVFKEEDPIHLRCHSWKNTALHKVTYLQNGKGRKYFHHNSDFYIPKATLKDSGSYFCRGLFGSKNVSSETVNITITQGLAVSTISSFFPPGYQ
Chain of Herceptin-IgG4 (wild type IgG4 with the Fab of trastuzumab) (antibody) (Fc): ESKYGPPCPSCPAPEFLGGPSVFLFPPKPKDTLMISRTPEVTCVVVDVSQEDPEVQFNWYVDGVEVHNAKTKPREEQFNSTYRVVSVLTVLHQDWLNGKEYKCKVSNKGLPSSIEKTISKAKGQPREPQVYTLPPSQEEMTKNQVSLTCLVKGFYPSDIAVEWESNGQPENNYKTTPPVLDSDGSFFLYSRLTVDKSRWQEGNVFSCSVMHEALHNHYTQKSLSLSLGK

Substance: EDH (V264E, L309D, and Q311H), IgG displayed on E. coli spheroplasts (antibody)
M (mean fluorescence intensity) [1]: 20.4
M (mean fluorescence intensity) [2]: 135

Substance: EDHY (V264E, L309D, Q311H, and N434Y), IgG displayed on E. coli spheroplasts (antibody)
M (mean fluorescence intensity) [1]: 379
M (mean fluorescence intensity) [2]: 265

Substance: Herceptin-EDH (V264E, L309D, Q311H) (antibody)
Kd [8]: 0.487 µM
koff [8]: 0.23 s⁻¹
kon [8]: 465000 M⁻¹ s⁻¹

Substance: Herceptin-EDHS (V264E, L309D, Q311H, N434S) (antibody)
Kd [8]: 0.093 µM
koff [8]: 0.11 s⁻¹
kon [8]: 1.2e+06 M⁻¹ s⁻¹
fold enhanced affinity than Herceptin [12]: 5.9 fold

Substance: Herceptin-EDHY (V264E, L309D, Q311H, N434Y) (antibody)
Kd [8]: 0.028 µM
koff [8]: 0.038 s⁻¹
kon [8]: 1.4e+06 M⁻¹ s⁻¹
fold enhanced affinity than Herceptin [12]: 19.6 fold

Substance: TEDHY (A231T, V264E, L309D, Q311H, and N434Y), IgG displayed on E. coli spheroplasts (antibody)
M (mean fluorescence intensity) [1]: 237
M (mean fluorescence intensity) [2]: 231

Further lines, results first:

M (mean fluorescence intensity) [1]: 60.3
M (mean fluorescence intensity) [2]: 239
Substance: EDHS (V264E, L309D, Q311H, and N434S), IgG displayed on E. coli spheroplasts (antibody)

Kd [3]: 0.00028 µM
Kd [4]: 0.48 µM
Kd [5]: 0.27 µM
Kd [6]: 0.95 µM
Kd [7]: 2.91 µM
Kd [8]: 0.111 µM
Kd (C1q): 0.025 µM
EC50 (read off the curve) [9]: 0.007 µM
Kd [10]: 0.11 µM
EC50 (read off the curve) [11]: 0.004 µM
Substance: Herceptin-DHS (L309D; Q311H; N434S) (antibody)

Kd [13]: 2.46 µM
Substance: Herceptin-IgG4 (wild type IgG4 with the Fab of trastuzumab) (antibody)

Kd [3]: 0.00058 µM
Kd [5]: 0.41 µM
Kd [6]: 1.21 µM
Kd [7]: 2.25 µM
EC50 (read off the curve) [14]: 0.01 µM
Kd [8]: 0.055 µM
Kd (C1q): 0.016 µM
Kd [15]: 0.0227 µM
Kd [16]: 0.0587 µM
Kd [10]: 0.055 µM
Substance: Herceptin-LS (M428L/N434S) (antibody)

Kd [3]: 0.00029 µM
Kd [4]: 4.41 µM
Kd [5]: 0.62 µM
Kd [6]: 3.2 µM
Kd [7]: 6.24 µM
Kd [8]: 0.023 µM
Kd (C1q): 0.042 µM
Kd [15]: 4.29 µM
Kd [16]: 4.73 µM
Kd [10]: 0.023 µM
Substance: Herceptin-YTE (M252Y/S254T/T256E) (antibody)

M (mean fluorescence intensity) [1]: 83.3
M (mean fluorescence intensity) [2]: 152
Substance: M428L/N434S (antibody)
